Patent publication US20160362672

T1: soluble tissue factor (sTF), P13726
T1 chain: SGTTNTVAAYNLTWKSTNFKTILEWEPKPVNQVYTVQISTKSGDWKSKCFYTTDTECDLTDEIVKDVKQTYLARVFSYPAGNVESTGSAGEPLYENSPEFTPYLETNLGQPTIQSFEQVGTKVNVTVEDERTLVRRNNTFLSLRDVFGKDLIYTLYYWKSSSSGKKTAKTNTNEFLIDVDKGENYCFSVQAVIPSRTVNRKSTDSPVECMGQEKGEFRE

B1: FVIIa-AE288 (protein)
chain: AVFVTQEEAHGVLHRRRRANAFLEELRPGSLERECKEEQCSFEEAREIFKDAERTKLFWISYSDGDQCASSPCQNGGSCKDQLQSYICFCLPAFEGRNCETHKDDQLICVNENGGCEQYCSDHTGTKRSCRCHEGYSLLADGVSCTPTVEYPCGKIPILEKRNASKPQGRIVGGKVCPKGECPWQVLLLVNGAQLCGGTLINTIWVVSAAHCFDKIKNWRNLIAVLGEHDLSEHDGDEQSRRVAQVIIPSTYVPGTTNHDIALLRLHQPVVLTDHVVPLCLPERTFSERTLAFVRFSLVSGWGQLLDRGATALELMVLNVPRLMTQDCLQQSRKVGDSPNITEYMFCAGYSDGSKDSCKGDSGGPHATHYRGTWYLTGIVSWGQGCATVGHFGVYTRVSQYIEWLQKLMRSEPRPGVLLRAPFPGSPGTSESATPESGPGSEPATSGSETPGTSESATPESGPGSEPATSGSETPGTSESATPESGPGTSTEPSEGSAPGSPAGSPTSTEEGTSESATPESGPGSEPATSGSETPGTSESATPESGPGSPAGSPTSTEEGSPAGSPTSTEEGTSTEPSEGSAPGTSESATPESGPGTSESATPESGPGTSESATPESGPGSEPATSGSETPGSEPATSGSETPGSPAGSPTSTEEGTSTEPSEGSAPGTSTEPSEGSAPGSEPATSGSETPGTSESATPESGPGTSTEPSEGSAPGSSS

How the values were obtained:
[1] = target: T1, soluble tissue factor (sTF), P13726

Molecule | Concentration by Activity (ng/ml), aPTT based factor assay (FIX-DFTRVVG-XTEN_AE864) | Fraction Active (FIX-DFTRVVG-XTEN_AE864) | enhancement of clotting activity against FIX-XTEN without a cleavage site (aPTT based factor assay) (FIX-DFTRVVG-XTEN_AE864) | Concentration by Activity (ng/ml), aPTT based factor assay (FIX-/FXI/-XTEN_AE864) | Fraction Active (FIX-/FXI/-XTEN_AE864) | enhancement of clotting activity against FIX-XTEN without a cleavage site (aPTT based factor assay) (FIX-/FXI/-XTEN_AE864) | Concentration by Activity (ng/ml), aPTT based factor assay (FIX-KLTRAET-XTEN_AE864) | Fraction Active (FIX-KLTRAET-XTEN_AE864) | enhancement of clotting activity against FIX-XTEN without a cleavage site (aPTT based factor assay) (FIX-KLTRAET-XTEN_AE864) | FVIIa activity by soluble tissue factor (sTF) induced clotting (Stago STA-Clot FVIIa activity assay kit) [1]
FXI protease (activated factor XI, FXIa) | 9 ng/mL | 34% | In all three cases the presence of a FXI cleavage site enhanced the clotting activity by greater than 30-fold | 11 ng/mL | 40% | In all three cases the presence of a FXI cleavage site enhanced the clotting activity by greater than 30-fold | 7 ng/mL | 30% | In all three cases the presence of a FXI cleavage site enhanced the clotting activity by greater than 30-fold | –
B1 | – | – | – | – | – | – | – | – | – | an activity equivalent to 112 U/ml of FVIIa activity
